Here are results for 2 molecules from patent US9958461B2, “Detection of protein to protein interactions” (THE GOVERNING COUNCIL OF THE UNIVERSITY OF TORONTO, priority 2013, dated 2018).

For experiment [1], the system named is EGFR-Wt. Kind of experiment: MaMTH EGFR-interactor screen, lentiviral preys against EGFR-wildtype bait (interaction score). It is filed as cell-based, human. The note with it: ratio of EGFR-Wt mean to EGFR-L858R mean interaction score. Put shortly:
(§1)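 Interaction score is the luciferase fold-change versus averaged negative controls (Fabp5, Pex19, Pex7, GABBR2), with >1 called interacting. Luciferase was measured 24 h after triplicate bait transfection. This followed single-copy prey transduction (MOI ~0.3-0.4) of GAL4UAS-luciferase HEK293T cells and ≥48 h puromycin selection.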

Experiment [2] has as its target T1, EGFR-Wt (Homo sapiens, UniProt P00533).
T1 construct: with the advantage of testing full-length integral membrane proteins; (GGGGS)2 linker-Cub (human ubiquitin aa 35-76)-GAL4(1-147)-mNFkB(364-550) (C); expressed in transfected cells
The experiment is described as above. It is filed as cell-based. Particulars: MaMTH interaction score of prey with EGFR-Wt bait, mean. The method in brief: as §1

The target in another experiment is T2, EGFR-L858R (Homo sapiens, UniProt P00533, L858R).
T2 construct: with the advantage of testing full-length integral membrane proteins; (GGGGS)2 linker-Cub (human ubiquitin aa 35-76)-GAL4(1-147)-mNFkB(364-550) (C); expressed in transfected cells
Kind of experiment: MaMTH EGFR-interactor screen, lentiviral preys against EGFR-L858R bait (interaction score). It counts as cell-based. The note with it: MaMTH interaction score of prey with EGFR-L858R bait. Put shortly: as §1

B1: LCP2 (protein, UniProt Q13094 1-533, looked up)
Lymphocyte cytosolic protein 2: MALRNVPFRSEVLGWDPDSLADYFKKLNYKDCEKAVKKYHIDGARFLNLTENDIQKFPKLRVPILSKLSQEINKNEERRSIFTRKPQVPRFPEETESHEEDNGGWSSFEEDDYESPNDDQDGEDDGDYESPNEEEEAPVEDDADYEPPPSNDEEALQNSILPAKPFPNSNSMYIDRPPSGKTPQQPPVPPQRPMAALPPPPAGRNHSPLPPPQTNHEEPSRSRNHKTAKLPAPSIDRSTKPPLDRSLAPFDREPFTLGKKPPFSDKPSIPAGRSLGEHLPKIQKPPLPPTTERHERSSPLPGKKPPVPKHGWGPDRRENDEDDVHQRPLPQPALLPMSSNTFPSRSTKPSPMNPLPSSHMPGAFSESNSSFPQSASLPPYFSQGPSNRPPIRAEGRNFPLPLPNKPRPPSPAEEENSLNEEWYVSYITRPEAEAALRKINQDGTFLVRDSSKKTTTNPYVLMVLYKDKVYNIQIRYQKESQVYLLGTGLRGKEDFLSVSDIIDYFRKMPLLLIDGKNRGSRYQCTLTHAAGYP
On to B1, for which, in the experiment on EGFR-Wt [1], the Wt/L858R was found to be 0.43. Further, in the experiment with EGFR-Wt [2], the EGFR-Wt mean was found to be 2.71. For the same molecule, the EGFR-L858R mean in the experiment with EGFR-L858R came to 6.29.

B2: GAB1 (protein, UniProt Q13480 2-694, looked up)
GRB2-associated-binding …: SGGEVVCSGWLRKSPPEKKLKRYAWKRRWFVLRSGRLTGDPDVLEYYKNDHAKKPIRIIDLNLCQQVDAGLTFNKKEFENSYIFDINTIDRIFYLVADSEEEMNKWVRCICDICGFNPTEEDPVKPPGSSLQAPADLPLAINTAPPSTQADSSSATLPPPYQLINVPPHLETLGIQEDPQDYLLLINCQSKKPEPTRTHADSAKSTSSETDCNDNVPSHKNPASSQSKHGMNGFFQQQMIYDSPPSRAPSASVDSSLYNLPRSYSHDVLPKVSPSSTEADGELYVFNTPSGTSSVETQMRHVSISYDIPPTPGNTYQIPRTFPEGTLGQTSKLDTIPDIPPPRPPKPHPAHDRSPVETCSIPRTASDTDSSYCIPTAGMSPSRSNTISTVDLNKLRKDASSQDCYDIPRAFPSDRSSSLEGFHNHFKVKNVLTVGSVSSEELDENYVPMNPNSPPRQHSSSFTEPIQEANYVPMTPGTFDFSSFGMQVPPPAHMGFRSSPKTPPRRPVPVADCEPPPVDRNLKPDRKVKPAPLEIKPLPEWEELQAPVRSPITRSFARDSSRFPMSPRPDSVHSTTSSSDSHDSEENYVPMNPNLSSEDPNLFGSNSLDGGSSPMIKPKGDKQVEYLDLDLDSGKSTPPRKQKSSGSGSSVADERVDYVVVDQQKTLALKSTREAWTDGRQSTESETPAKSVK
Turning to B2, the Wt/L858R with EGFR-Wt [1] was 0.41. Further, the EGFR-Wt mean in the experiment with EGFR-Wt [2] is on record as 0.93. Also, the EGFR-L858R mean with EGFR-L858R is reported as 2.30.
